Test results published in patent US20250250328A1.

Key:
Assay in all cases: cell-based or functional assay
[1] = biological target: HIV-1 envelope 3637_V5_C3 (HIV-1)
[2] = biological target: HIV-1 envelope ZM106.9 (HIV-1)
[3] = biological target: HIV-1 envelope 3326_V4_C3 (HIV-1)
[4] = biological target: HIV-1 envelope X2088.C9 (HIV-1)
[5] = biological target: HIV-1 envelope Q461_E2 (HIV-1)
[6] = biological target: HIV-1 envelope 42368 (HIV-1)
[7] = biological target: HIV-1 envelope 3468_V1_C12 (HIV-1)
[8] = biological target: HIV-1 envelope CC1/85 (HIV-1)
[9] = biological target: HIV-1 envelope NL4-3 (HIV-1)
[10] = biological target: HIV-1 envelope T278.50 (HIV-1)
[11] = biological target: HIV-1 envelope CAP45.2.00.G3 (HIV-1)
[12] = biological target: a different panel of HIV-1 envelopes from bNAb1-resistant strains
[13] = biological target: HIV-1 envelope of laboratory strain NL4-3 (HIV-1)
[14] = biological target: HIV-2 envelope HIV-2-ATM88 (HIV-2)
[15] = biological target: HIV-2 envelope HIV-2-HCC-01 (HIV-2)
[16] = biological target: HIV-1 envelope CE0217 (HIV-1)
[17] = biological target: HIV-1 envelope BJOX2000 (HIV-1)
[18] = biological target: HIV-1 envelope 246F3 (HIV-1)
[19] = biological target: HIV-1 envelope CNE55 (HIV-1)
[20] = biological target: HIV-1 envelope 398F1 (HIV-1)
[21] = biological target: HIV-1 envelope X1632_S2_B10 (HIV-1)
[22] = biological target: HIV-1 envelope JRFL (HIV-1)
[23] = biological target: HIV-1 envelope 25710 (HIV-1)
[24] = biological target: HIV-1 envelope X2278 (HIV-1)
[25] = biological target: HIV-1 envelope TRO11 (HIV-1)
[26] = biological target: HIV-1 envelope CH119 (HIV-1)
[27] = biological target: HIV-1 envelope JR-CSF (HIV-1)
[28] = biological target: HIV-1 envelope CE1176 (HIV-1)
[29] = biological target: HIV-1 envelope CNE8 (HIV-1)

B1: bNAb18 (antibody, V domains shown)
VH: QVQLVQSGAEVRKPGSSVTISCKPVGGTFTNFAIHWVRQAPGQGLEWVGGRVPVVGIYKYGKKFHDRLRLYEDDPMKTVFLELRSLTSDDTGVYYCTRWRGCGMCPYDTSSYYNDASDVWGPGTKVIVSA
VL: EIVLTQSPVTLSLSSGETGTLSCRASQNISSSWIAWYQQRRGQVPRLLISAASARAAGIPDRFTGRGSGTDFTLTITRLEPEDFGVYSCQYYGGSFFTFGPGTQVDVKR
[1]
  IC50, PSV assay: > 500 nM
[2]
  IC50, PSV assay: 0.11 nM
[3]
  IC50, PSV assay: > 500 nM
[4]
  IC50, PSV assay: 0.2 nM
[5]
  IC50, PSV assay: > 500 nM
[6]
  IC50, PSV assay: > 500 nM
[7]
  IC50, PSV assay: > 500 nM

B2: bNAb19 (antibody, V domains shown)
VH: EVQLVESGGGLVKAGGSLILSCGVSNFRISAHTMNWVRRVPGGGLEWVASISTSSTYRDYADAVKGRFTVSRDDLEDFVYLQMHKMRVEDTAIYYCARKGSDRLSDNDPFDAWGPGTVVTVSP
VL: DVVMTQSPSTLSASVGDTITITCRASQSIETWLAWYQQKPGKAPKLLIYKASTLKTGVPSRFSGSGSGTEFTLTISGLQFDDFATYHCQHYAGYSATFGQGTRVEIKR
[1]
  IC50, PSV assay: > 300 nM
[2]
  IC50, PSV assay: > 300 nM
[3]
  IC50, PSV assay: > 300 nM
[4]
  IC50, PSV assay: > 300 nM
[5]
  IC50, PSV assay: > 300 nM
[6]
  IC50, PSV assay: > 300 nM
[7]
  IC50, PSV assay: > 300 nM

B3: bNAb23 (antibody, V domains shown)
VH: QVQLLESGPGLVRPSETLTLTCSVFNSRVSGYYYSWIRQPPGRGLEWIASTHFSLRPSRNPSLLSRVTTSIDTERYQVFLNMRSVTAADTAVYFCARGDASGWRADYFPHWGQGTLVVVSS
VL: QSVLTQPPSASGSPGQSVTISCTGTSSDIGASDYVSWYQQYPGEAPKVIIYDVTKRPSGVPDRFSGSKSGTTASLTVSGLQAEDEADYYCSSDAGRHTLLFGGGTKVTVLG
[1]
  IC50, PSV assay: > 500 nM
[2]
  IC50, PSV assay: 17.4 nM
[3]
  IC50, PSV assay: 15.3 nM
[4]
  IC50, PSV assay: > 500 nM
[5]
  IC50, PSV assay: > 500 nM
[6]
  IC50, PSV assay: > 500 nM
[7]
  IC50, PSV assay: > 500 nM

B4: bNAb3 (antibody, V domains shown)
VH: QVQLRESGPGLVKPSETLSLSCTVSNDSRPSDHSWTWVRQSPGKALEWIGDIHYNGATTYNPSLRSRVRIELDQSIPRFSLKMTSMTAADTGMYYCARNAIRIYGVVALGEWFHYGMDVWGQGTAVTVSS
VL: SSELTQPPSVSVSPGQTARITCSGAPLTSRFTYWYRQKPGQAPVLIISRSSQRSSGWSGRFSASWSGTTVTLTIRGVQADDEADYYCQSSDTSDSYKMFGGGTKLTVLG
[8]
  IC50 (nM), PSV assay (ACTOne cells): 38.3 nM
[9]
  IC50 (nM), PSV assay (ACTOne cells): 0.15 nM
[2]
  IC50 (nM), PSV assay (ACTOne cells): 0.03 nM
[10]
  IC50 (nM), PSV assay (ACTOne cells): 0.01 nM
[4]
  IC50 (nM), PSV assay (ACTOne cells): 0.03 nM
[6]
  IC50 (nM), PSV assay (ACTOne cells): > 500 nM
[11]
  IC50 (nM), PSV assay (ACTOne cells): > 500 nM

B5: bNAb1 (antibody, V domains shown)
VH: QPQLQESGPTLVEASETLSLTCAVSGDSTAACNSFWGWVRQPPGKGLEWVGSLSHCASYWNRGWTYHNPSLKSRLTLALDTPKNLVFLKLNSVTAADTATYYCARFGGEVLRYTDWPKPAWVDLWGRGTLVTVSS
VL: QSALTQPPSASGSPGQSITISCTGTSNNFVSWYQQHAGKAPKLVIYDVNKRPSGVPDRFSGSKSGNTASLTVSGLQTDDEAVYYCGSLVGNWDVIFGGGTKLTVLG
[8]
  IC50 (nM), PSV assay (ACTOne cells): 0.03 nM
[12]
  geometric mean IC50, PSV assay (ACTOne), FIG. 4B: > 10 nM
[9]
  IC50 (nM), PSV assay (ACTOne cells): 131 nM
[2]
  IC50 (nM), PSV assay (ACTOne cells): 0.07 nM
[10]
  IC50 (nM), PSV assay (ACTOne cells): 0.17 nM
[4]
  IC50 (nM), PSV assay (ACTOne cells): 402 nM
[13]
  EC50 (replicating virus assay): > 500 nM
[14]
  IC50, PSV assay: > 500 nM
[15]
  IC50, PSV assay: > 500 nM
[6]
  IC50 (nM), PSV assay (ACTOne cells): > 500 nM
[11]
  IC50 (nM), PSV assay (ACTOne cells): > 500 nM

B6: bNAb5 (antibody, V domains shown)
VH: QLQMQESGPGLVKPSETLSLSCTVSGDSIRGGEWGDKDYHWGWVRHSAGKGLEWIGSIHWRGTTHYKESLRRRVSMSIDTSRNWFSLRLASVTAADTAVYFCARHRHHDVFMLVPIAGWFDVWGPGVQVTVSS
VL: EIVMTQSPDTLSVSPGETVTLSCRASQNINKNLAWYQYKPGQSPRLVIFETYSKIAAFPARFVASGSGTEFTLTINNMQSEDVAVYYCQQYEEWPRTFGQGTKVDIKR
[16]
  IC50 (nM), PSV assay: 410 nM
[8]
  IC50 (nM), PSV assay: > 500 nM
[9]
  IC50 (nM), PSV assay: 2.62 nM
[17]
  IC50 (nM), PSV assay: 127 nM
[18]
  IC50 (nM), PSV assay: 40.9 nM
[19]
  IC50 (nM), PSV assay: 3300 nM
[20]
  IC50 (nM), PSV assay: 1.83 nM
[2]
  IC50 (nM), PSV assay: 2.04 nM
[21]
  IC50 (nM), PSV assay: > 500 nM
[22]
  IC50 (nM), PSV assay: 58.2 nM
[23]
  IC50 (nM), PSV assay: 8.1 nM
[10]
  IC50 (nM), PSV assay: 96.1 nM
[24]
  IC50 (nM), PSV assay: 9.53 nM
[4]
  IC50 (nM), PSV assay: 0.17 nM
[25]
  IC50 (nM), PSV assay: 0.39 nM
[26]
  IC50 (nM), PSV assay: 63.5 nM
[6]
  IC50 (nM), PSV assay: > 500 nM
[27]
  IC50 (nM), PSV assay: 0.64 nM
[28]
  IC50 (nM), PSV assay: 57.1 nM
[29]
  IC50 (nM), PSV assay: 51.4 nM
[11]
  IC50 (nM), PSV assay: > 500 nM

B7: bNAb14 (antibody, V domains shown)
VH: QLQLQESGPGLVKPSETLSLTCTVSGGSMRGTDWGENDFHYGWIRQSSAKGLEWIGSIHWRGRTTHYKTSFRSRATLSIDTSNNRFSLTFSFVTAADTAVYYCARHKYHDIFRVVPVAGWFDPWGQGLLVTVSS
VL: EIVMTQSPPTLSVSPGETATLSCRASQNVKNNLAWYQLKPGQAPRLLIFDASSRAGGIPDRFSGSGYGTDFTLTVNSVQSEDFGDYFCQQYEEWPRTFGQGTKVDIKR
[1]
  IC50, PSV assay: > 500 nM
[2]
  IC50, PSV assay: 1.26 nM
[3]
  IC50, PSV assay: > 500 nM
[4]
  IC50, PSV assay: 2.79 nM
[5]
  IC50, PSV assay: > 500 nM
[6]
  IC50, PSV assay: > 500 nM
[7]
  IC50, PSV assay: > 500 nM

B8: bNAb15 (antibody, V domains shown)
VH: EVHLEESGPGLVRPSETLSLTCTASGGSIRGGEWGDSDYHWGWVRHSPEKGLEWIGSIHWRGTTHYNAPFRGRGRLSIDLSRNQFSLRLTSVTAEDTAVYYCVKHKYHDIVMVVPIAGWFDPWGQGLQVTVSS
VL: EIMMTQSPAILSVSPGDRATLSCRASQSVKNNLAWYQKRPGQAPRLLIFDTSSRASGIPARFSGGGSGTEFTLTVNSMQSEDFATYYCQQYEEWPRTFGQGTKVEIKR
[1]
  IC50, PSV assay: 5 nM
[2]
  IC50, PSV assay: 1.34 nM
[3]
  IC50, PSV assay: > 500 nM
[4]
  IC50, PSV assay: 2.58 nM
[5]
  IC50, PSV assay: > 500 nM
[6]
  IC50, PSV assay: > 500 nM
[7]
  IC50, PSV assay: > 500 nM

B9: bNAb16 (antibody, V domains shown)
VH: EVQLVESGGGLVKPGGSLRLTCVASGFTFSDVWLNWVRQAPGKGLEWVGRIKSRTDGGTTDYAASVKGRFTISRDDSKNTLYLQMNSLKTEDTAVYSCTTDGFIMIRGVSEDYYYYYMDVWGKGTTVTVSS
VL: QSVLTQPPSVSAAPGQKVTISCSGSSSNIGNNYVLWYQQFPGTAPKLLIYGNNKRPSGIPDRFSGSKSGTSATLGITGLQTGDEADYFCATWDSGLSADWVFGGGTKLTVLG
[1]
  IC50, PSV assay: > 500 nM
[2]
  IC50, PSV assay: > 500 nM
[3]
  IC50, PSV assay: > 500 nM
[4]
  IC50, PSV assay: 289 nM
[5]
  IC50, PSV assay: > 500 nM
[6]
  IC50, PSV assay: > 500 nM
[7]
  IC50, PSV assay: > 500 nM
